Biological target: cytochrome b6f complex from Chlamydomonas reinhardtii (Chlamydomonas reinhardtii) (UniProt Q00471)
Assay: crystal structure

Question: Which stoichiometry N does the source give for “cytochrome b6f complex from Chlamydomonas reinhardtii (from UniProt Q00471 1-215; P49728 30-206; P23230 1-160; P23577 32-317)” here?
Answer: 2

From PMC3865438
